US12083109B2, “Neurokinin antagonists and uses thereof” (California Institute of Technology, priority 2017, dated 2024)
“Also recorded” adds a separate entry of the source.

B1: shRNA-1: small hairpin RNA for mouse Tac2 gene (SEQ ID NO: 9, 10), expressed from AAV5-H1-shRNA-CMV-zsGreen (nucleic acid)
chain 1: CCGACGTGGTTGAAGAGAACACCGCTTCCTGTCACGGTGTTCTCTTCAACCACGTCTTTTTT
chain 2: AAAAAAGACGTGGTTGAAGAGAACACCGTGACAGGAAGCGGTGTTCTCTTCAACCACGTCGG
B2: shRNA-2: small hairpin RNA for mouse Tac2 gene (SEQ ID NO: 11, 12), expressed from AAV5-H1-shRNA-CMV-zsGreen (nucleic acid)
chain 1: CCGCCTCAACCCCATAGCAATTAGCTTCCTGTCACTAATTGCTATGGGGTTGAGGCTTTTTT
chain 2: AAAAAAGCCTCAACCCCATAGCAATTAGTGACAGGAAGCTAATTGCTATGGGGTTGAGGCGG

Tested on: Tac2
Experiment: Looming disk assay, Tac2 shRNA knockdown
Assay type: in vivo, mouse
Details: SIS mice
From the text: Small hairpin RNA (shRNA) for the mouse Tac2 gene (NM_009312.2) were designed using the online designing tool siDirect 2.0 (http://sidirect2.mai.jp/) (Naito et al., 2009; incorporated by reference in its entirety).
8-16 week old mice were anesthetized with isoflurane and mounted in a stereotaxic apparatus (Kopf Instruments). Anesthesia was maintained throughout surgery at 1-1.5% isoflurane. The skull was exposed and small burr holes produced dorsal to each injection site using a stereotaxic mounted drill. Virus was backfilled into pulled fine glass capillaries (˜50 μm diameter at tip) and pressure injections of 300 nl were made bilaterally into either the dBNSTa (AP +0.25, ML ±0.85, DV −4.1), DMH (AP −1.3, ML±0.35, DV −5.6), or CeA (AP −1.4, ML ±2.6, DV −4.73) at a rate of 30nl per minute using a nanoliter injector (Nanoliter 2000, World Precision Instruments) controlled by an ultra microsyringe pump (Micro4, World Precision Instruments). Capillaries remained in place for 5 minutes following injections to allow for full diffusion of virus and to reduce backflow up the injection tract. Skin above the skull was then drawn together and sealed with GLUture (Zoetis). For bilateral cannula implantations, single or double guide cannulas (custom, Plastics One) aimed 0.5 mm above each region were implanted and held in place with dental cement (Parkell). Compatible dummy cannulas with a 0.5 mm protrusion at the tip were inserted to prevent cannula clogging. Directly following surgery, mice were given a subcutaneous injection of ketoprofen (2 mg/kg) and supplied with drinking water containing 400 mg/L sulphamethoxazole and 200 mg/L ibuprofen and monitored for 7 days. Dummies were replaced every 2-3 days to keep cannula tracts clean. All injections were subsequently verified histologically.
Freezing behavior to presentation of an overhead looming disk proceeded as previously described (Kunwar et al., 2015; Yilmaz and Meister, 2013; incorporated by reference in their entirety). Briefly, mice were transported to a novel behavioral testing room. […] Behavior was recorded using a video recorder attached to a laptop equipped with video capture software (Corel VideoStudio Pro). Acute freezing behavior to the looming disk (“during”) as well as in the 30 seconds following the last disk (“post”) were scored manually (Behavior Annotator, MATLAB) by an observer blind to environmental conditions.
To further investigate a role for local Tac2 release in mediating different effects of SIS, we asked next whether Tac2 synthesis played a role in each of the three brain regions studied, via targeted shRNAi-mediated knockdown of Tac2. […] Injections were histologically verified by zsGreen fluorescence. […]

Row | Molecule | freezing to looming disk (acute, during stimulus) (AAV shRNA in CeA) | acute (during) freezing to looming disk (AAV shRNA in dBNSTa) | persistent (post) freezing to looming disk (AAV shRNA in dBNSTa)
1 | B1 | blocked | had no effect | blocked; also recorded: strongly reduced
2 | B2 | – | additionally reduced; also recorded: significantly reduced | –
